{
  "source": "the DeepSol protein solubility set",
  "data": [
    {"experiment": "soluble on expression in E. coli; label from the status in PepcDB or PDB records", "values": [
      {"sequence": "MILCSEKEKCEGIKNSKDEGIIPRVLILSTLQGEPSREKAKIGIFGINPGPHLPFERLYYTDILKKHGLFTSEYSKSNAIKAFKEIHDTWVSEFIKNYRNYPFHYKYFANTLEFLKKAKTVLIYRRKYNSVWRISILLEHHHHHH", "soluble on expression in E. coli": "not soluble"},
      {"sequence": "MILDTSVIIRIFRDRNFFEVLKERIDDDVKITSVTAYELQRGAVYIMLKHGRDYEFKLIRDFLEEVEILSFTPKDSEISAMIWAKLREKGYELNDADIMISAVSIRENEKLVTLDRDFEYISRVSELDVDILEEEL", "soluble on expression in E. coli": "not soluble"},
      {"sequence": "MILDVDYITEEGKPVIRLFKKENGKFKIEHDRTFRPYIYALLRDDSKIEEVKKITGERHGKIVRIVDVEKVEKKFLGKPITVWKLYLEHPQDVPTLREKVREHPAVVDIFEYDIPFAKRYLIDKGLIPMEGEEELKILAFDIETLYHEGEEFGKGPIIMISYADENEARVITWKNIDLPYVESVSTEKEMIKRFLRIIREKDPDIIVTYNGDSFDFPYLAKRAEKLGIKLTIGRDGSEPKMQRIGDMTAVEVKGRIHFDLYHVIRTTINLPTYTLEAVYEAIFGKPKEKVYADEIAKAWESGENLERVAKYSMEDAKATYELGKEFLPMEIQLSRLVGQPLWDVSRSSTGNLVEWFLLRKAYERNEVAPNKPSEEEYQRRLRESYTGGFVKEPEKGLWENIVYLDYKSLYPSIIITHNVSPDTLNLEGCKNYDIAPQVGHKFCKDIPGFIPSLLGHLLEERQKIKTKMKETQDPIEKILLDYRQKAIKLLANSFYGYYGYAKARWYCKECAESVTAWGRKYIELVWKELEEKFGFKVLYIDTDGLYATIPGGESEEIKKKALEFVKYINSKLPGLLELEYEGFYKRGFFVTKKRYAVIDEEGKVITRGLEIVRRDWSEIAKETQARVLETILKHGDVEEAVRIVKEVIQKLANYEIPPEKLAIYEQITRPLHEYKAIGPHVAVAKKLAAKGVKIKPGMVIGYIVLRGDGPISNRAILAEEYDPKKHKYDAEYYIENQVLPAVLRILEGFGYRKEDLRYQKTRQVGLTSWLNIKKS", "soluble on expression in E. coli": "soluble"},
      {"sequence": "MILGEIMEVLAFKNQSLIDHVNDMVKYWERIKYRYLKTIKRALEALNIKLDIEKVDEFMKILIKLHDIGKASKIYQRAIINDQEKLMGFRHELVSAYYTYHILLKKFGDKNLAFIGALTVMLHHEPIIMGQIRNLKKKELTAEVVLDKLKKFDGMIEDFEDLIKKLIGYSIGDIIKNDSNKDDIIRFVIEMSVRARHTPNSEKLRFIVGTLLLPLVMCDYKGAESREGKAPKFAEVLEVESYVI", "soluble on expression in E. coli": "soluble"},
      {"sequence": "MILLLLLFILGSVSPDELISTRCQAQCLHLMDQRLQNNMELRKTLKHHIIQLCKEDATCSACSAPCREQFDDIKACKKSCVASDDRETCEDSCHYLQRIYQEKPGACPSVSNQSNYECSALCQMDGECPETQKCCSSGCSRQCLKPRSSDIKLLPIPRNISVQERKRKRSIIIRWATGRLSKAQQNENANLFLVQWRWGLHADESAMTEWQTVTVRNKPYAILKHLLSPGRFYEFRTAAVSQEGSLGFSSPSKPFKISKEAKAPPPPKDLSLGASKVVASGLWNQMVHWNPPPSDLPIKNYQISWASSTKSEADAFEEQMRKKSTLEFAAHEKRSLQSDDDEEFIGIQERDRQSVVVPSHATSSEITGLFPNSVYLVEIHASVDSSDGELHGEKGVVFIRTADSLSAVPEDREPYTGPKARIAHGSEELKIEASLKDLKTSSHAPNRPNSPQPAHLEIQTPFFDTELQTQLNWLNAAHCTPAKRQFSVKVRKTLCREYQPNHHSDTRWHDLRVTDCSALLKGLSFDCDYKVEVTDTLTGDFVVDGVFSTDTCDQTSSLTPIDCSSVTTPIQCQVTSESSAHCHWTRHHDAMQTVIGYRILLSSPINHDTNTTINQPQLREVRYENLAPGYVYTVEVQSITNKGLGRTVSTQFVTHPDLDSNAIQRFPGGEIIELPLESSGKLSIFSIFSSFFLVLLLRLL", "soluble on expression in E. coli": "not soluble"},
      {"sequence": "MILVTGATGVVGRQVAHTLARSGRVRLLVRDPARLTVEGPGVEVATGAYEDHASLLRALKGVEAAFLVTVDPGGQEDGRFLRAAVAADVRHVVKLSSYAAGEDDADDLITRWQRKCEETLRSSGLDWTLLRPRAFMSNTLSWADSIRREGTVRALYPGSENACVDPRDIAEVAVTALTSPGHEGRVYPLTGPEAVSAEQQTRHLAAVLGRPLVCRELTPQQAAARWARRYPPKVVHALVLSAQRQLLGRKTTTDPTFARVTGHPPRSYRQWATDHRNAFA", "soluble on expression in E. coli": "not soluble"},
      {"sequence": "MIMALSSFGKILTVLDLFSVHRPIINVDIICEELALSKPTGYRYLKELVSSEILQRISGTSGDYTLGPKIAVMDYISRTTDPIVQMSSPFMRDIAERTELCCLLTHLNRDYCIDVHHEVFRNADLLSYGRGCPRPVYMGSSPKVIMAHLPKRQIQDYYQRFSRQLAEVDFAHDEESFLIRMKKIKKDGYYISHGELNPDVTGLSVPIKFSHTKESPMALTLVASKNRFEFINIDKLIEILQANVIHIEQKSLALIQIEKSLH", "soluble on expression in E. coli": "not soluble"},
      {"sequence": "MIMASSAAASISMITLRNLSRNHQSHQSTFLGFSRSFHNQRISSNSPGLSTRARSTTSSTGGFFRTICSSSSNDYSRPTKIQELNVYEFNEGDRNSPAVLKLGKKPDQLCLGDLVPFTNKLYTGDLTKRIGITAGLCVLIQHVPEKKGDRFEASYSFYFGDYGHISVQGPYLTYEDTFLAITGGSGVFEGAYGQVKLRQLVYPTKLFYTFYLKGVAADLPVELTGKHVEPSKEVKPAAEAQATQPGATIANFTN", "soluble on expression in E. coli": "soluble"},
      {"sequence": "MIMNQQLNATKKDKLQVIDWLIENFPNAFFKKGNQVKPLKIGIFDDLIDFYERLDTPPFSKKSLREALSYYSASPAYLSCQKPDTARVDIYGNEVDVVTPEQAKYAYQRYQERYGNKKSQELK", "soluble on expression in E. coli": "not soluble"},
      {"sequence": "MINFDNFKKYQESFGYMAQQLCFPEKLTFHPKTFEETISKDHPAYEDLVAFRNVMMTFSLSEIKAIYTDTFDFTKKAPLYMTYNKFDTQKERGQMLAKLKVLYEMFGLEMVDNELSDYLPLMLQFLQVAEWRNDPRAEENIQLIIMIIEDGTYVMANALGEDNNPYAYVIQALRKTLKLCLTSPKGVKHHA", "soluble on expression in E. coli": "not soluble"},
      {"sequence": "MINKIFALPVIEQLTPVLSRRQLDDLDLIVVDHPQVKASFALQGAHLLSWKPVGEEEVLWLSNNTPFKTGVALRGGVPICWPWFGPAAQQGLPSHGFARNLPWALKAHNEDDNGVMLTFELQSSEATRKYWPHDFTLLARFKVGKTCEIELEAHGEFATTSALHSYFNVGDIANVKVSGLGDRFIDKVNDAKEGVLTDGIQTFPDRTDRVYLNPEACSVIHDATLNRTIDVVHHHHLNVVGWNPGPALSVSMGDMPDDGYKTFVCVETVYATAPQQATEEKPSRLAQTICVAKR", "soluble on expression in E. coli": "not soluble"},
      {"sequence": "MINSVITQMAEELRKASKVALFSHVSPDGDCIGSMLGIGLALEALGKEVAMFNPDPIPRNLSFLPGVDKITQSMPDPLPETLLFVDCADLQRVQLQREDLPADAVILNLDHHISNQNFGRINWVDSQAAASGELAYALVRRLNVELTQEIAANFYTALLTDTGSFKYANTTAKTHQIAGELMETGISLGDIHHFVFDQTPMVKLELLRRGLNQLQFFAEGQLGMMTLRKQDFEESGAEESLSEGLIDHARTVEGVEVAVLLKEVKPDVVRVSLRSNRWFDVNRIADGFGGGGHQRAAGCTLHLSLEEAKQKVRQIIEEELKLGRSHLEHHHHHH", "soluble on expression in E. coli": "soluble"},
      {"sequence": "MIPKVIHYFWFGRGKKNDVIERCMDSWKVHLPDYEIKEWNEDNFNVHINNFTLQAYQMKKWAFVSDYARLHILYHYGGIYLDTDLEITNSLDPFLDYEGFMGFFSNFDISGGIIGAAKGNKFIKKLLTYYENKNFIDGNGKIDEKTNVEIITEISKKHFGFVGENQTQQILDMTIFPKEYFTVRDVNVKNYAIHHYNASWLSHEEMNKHLKSYRKYYEFTVKWLDNLINNKIDLTPYKNKCIAIFGKGYIGELLVSYLQNNNVPIRQIIDTKFANDTYKDIPIVSSDTISDEVNLIIITPIHSFESIYLSLKEKSCADIISIENLLS", "soluble on expression in E. coli": "soluble"},
      {"sequence": "MIPPLNRYVPALSKNELVKTVTNRDIQFTSFNGKDYPLCFLDEKTPLLFQWFERNPARFGKNDIPIINTEKNPYLNNIIKAATIEKERLIGIFVDGDFFPGQKDAFSKLEYDYENIKVIYRNDIDFSMYDKKLSEIYMENISKQESMPEEKRDCHLLQLLKKELSDIQEGNDSLIKSYLLDKGHGWFDFYRNMAMLKAGQLFLEADKVGCYDLSTNSGCIYLDADMIITEKLGGIYIPDGIAVHVERIDGRASMENGIIAVDRNNHPALLAGLEIMHTKFDADPYSDGVCNGIRKHFNYSLNEDYNSFCDFIEFKHDNIIMNTSQFTQSSWARHVQ", "soluble on expression in E. coli": "not soluble"},
      {"sequence": "MIPVTRMAVGKGTVSTRIKGLRGRRPSSFADILRPVVFWNITRACNLKCIHCYISAGPHPLPGELSTEEALGVARQLVEHGVPLVTLSGGEPLVRRDFWAIAKALSGHDTPKLALSSNGTLITRETAARLRRLGFSYVGISLDSVDPGVHDKFRGAPGAFKAAIRGARNALEEGLDVGFRLTITKYNLDDAPRIIRLASDMGVPRVAIYVVDLLGRATPDLAPSPEDLRRAIDAILEESVRHQDRVEVLLVRANFAGVYLADRLAKTRDEFLQLLSLVGSHGDCGRKSVSIYPDGTVRPCQFLEEVVIGDLRRQRLGEILSADNPLLKPFIAVDTMLRGPKCGGCPFKRVCGGGSRMRALKTTGEFWGDDPLCFIDPWSIARRWGYSAG", "soluble on expression in E. coli": "not soluble"},
      {"sequence": "MIQDKEVTLEYVSSLDFWYCKRCKANIGGHRSSCSFCKNPREVTEAKQELITYPQPQKTSIPAPLEKQPNQPLRPADKEPEPRKREEGQESRLGHQKREAERYLPPSRREGPTFRRDRERESWSGETRQDGESKTIMLKRIYRSTPPEVIVEVLEPYVRLTTANVRIIKNRTGPMGHTYGFIDLDSHAEALRVVKILQNLDPPFSIDGKMVAVNLATGKRRNDSGDHSDHMHYYQGKKYFRDRRGGGRNSDWSSDTNRQGQQSSSDCYIYDSATGYYYDPLAGTYYDPNTQQEVYVPQDPGLPEEEEIKEKKPTSQGKSSSKKEMSKRDGKEKKDRGVTRFQENASEGKAPAEDVFKKPLPPTVKKEESPPPPKVVNPLIGLLGEYGGDSDYEEEEEEEQTPPPQPRTAQPQKREEQTKKENEEDKLTDWNKLACLLCRRQFPNKEVLIKHQQLSDLHKQNLEIHRKIKQSEQELAYLERREREGKFKGRGNDRREKLQSFDSPERKRIKYSRETDSDRKLVDKEDIDTSSKGGCVQQATGWRKGTGLGYGHPGLASSEEAEGRMRGPSVGASGRTSKRQSNETYRDAVRRVMFARYKELD", "soluble on expression in E. coli": "not soluble"},
      {"sequence": "MIQIAIAGSSDEKPLEVAVRKTKEFIKALPSDVILMTGGRGGIMEVASEEFRKKGGIVVGILPYSDNGNRFNTVRVKTGLNPVERSGVLIESADVLVVLGGGVGTMIEALMAYNLGIPVIVITGTGYASDRLMELAKEGYFDHKRIVKVIFTDDPKEAAKLALKIGGERSEARDI", "soluble on expression in E. coli": "soluble"},
      {"sequence": "MIQKGCTPIEEGSDSEPQAETVPEEADYEAVPVEAYGLAMLRGMGWKPGKGIGNTFSQVVKPRVNSIRPKGLGLGANRMEAQDLASVGSHHPPRPDGDRENDKEGQPQGLMHGRAVVVLSGPYRGLYGKVEGLDPDNVRAMVRLAVGNRIVTVSEYCLRPVSQQEFDSHTSKPGHVSQTSTEQQNRATGTASSLKAAQNQEDSKRRQKGSEKKRKHSPDRQDGPVPKTEKAAPRNKHWLHRDLRVRFIDKLHKSGRYYNTKMTIEDVLSPDTCVCRTDEGRVLEDVREDMLETLIPKGEGHRVMVVLGPHAGKVGLLRSRDRAQSHALVQLRRENQVVELHYNAICQYMGPGDSDED", "soluble on expression in E. coli": "soluble"}
    ]}
  ]
}
